Measured values taken from US20260166185A1 (Y MABS THERAPEUTICS, published 2026).
Each block holds one binder with its values, some of them ahead of it.

How the values were obtained:
[1] = target: T1, bio-huCD38 (human (hu), UniProt P28907 43-300, biotinylated (bio-), site not stated); assay: SPR, antigen immobilized, antibody as analyte 25-1.6 nM; at the instrument's limit
[2] = target: T2, CD38 on Daudi cells (UniProt P28907 1-300, limits assumed); assay: titration binding FACS on Daudi cells
T2 construct: whole, on cells
Protocol: (§1) Subsequently the EC50 of antibodies samples was determined by titration binding FACS on Daudi cells (for CD38 binding evaluation), on THP-1 cells (for CD33 binding evaluation), on A-431 cells (for EGFR binding evaluation), on MKN-45 cells (for CEACAMS binding evaluation) and on HEK293T (for CD276 binding evaluation). Jurkat E6-1 or HEK293T cell lines were used as negative control, as applicable.

[3] = target: T1, bio-huCD38; assay: SPR, antigen immobilized, antibody as analyte 25-1.6 nM
Protocol: (§2) SPR analysis was performed on a Biocore 8K+, using a CFJB0944 CM5 sensor chip for immobilization and a SPR running buffer 1×HBS-EP+pH 7.4 (Cytiva, cat no. BR100669) according to the manufacturer's instructions.
(§3) In the second part of this example, antigen was immobilized on the chip and antibody dissolved in the SPR running buffer flowed over the chip.

[4] = target: T1, bio-huCD38; assay: SPR, antigen immobilized, antibody as analyte 25-1.6 nM; estimated from ka and the limit kd
Protocol: as §2, §3

[5] = target: T1, bio-huCD38; assay: SPR, antibody captured on chip, antigen as analyte 200-6.25 nM
Protocol: as §2
(§4) In the first part of this example the antibody was immobilized on the chip and the antigen dissolved in the SPR running buffer flowed over the chip.

[6] = target: T3, CD276 on HEK293T cells (UniProt Q5ZPR3 29-534, limits assumed); assay: titration binding FACS on HEK293T cells
T3 construct: whole, on cells
T3 sequence (looked up): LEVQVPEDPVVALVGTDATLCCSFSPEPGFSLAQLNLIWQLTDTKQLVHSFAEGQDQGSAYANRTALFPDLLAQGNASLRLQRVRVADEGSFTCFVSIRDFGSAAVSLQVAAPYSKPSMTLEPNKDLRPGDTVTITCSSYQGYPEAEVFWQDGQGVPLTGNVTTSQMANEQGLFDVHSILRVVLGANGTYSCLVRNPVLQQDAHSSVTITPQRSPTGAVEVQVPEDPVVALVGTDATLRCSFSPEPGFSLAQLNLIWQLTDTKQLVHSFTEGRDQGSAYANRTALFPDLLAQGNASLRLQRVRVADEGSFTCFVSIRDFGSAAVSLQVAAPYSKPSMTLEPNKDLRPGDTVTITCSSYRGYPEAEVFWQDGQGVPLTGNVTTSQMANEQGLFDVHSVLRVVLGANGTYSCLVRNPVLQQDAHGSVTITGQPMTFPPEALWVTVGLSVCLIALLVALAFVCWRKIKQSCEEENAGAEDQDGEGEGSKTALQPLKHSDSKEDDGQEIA
Protocol: as §1

[7] = target: T4, bio-huCD276 (human (hu), UniProt Q5ZPR3 29-461, limits assumed, biotinylated (bio-), site not stated); assay: SPR, antigen immobilized, antibody as analyte 25-1.6 nM
T4 construct: also called B7-H3
T4 sequence (looked up): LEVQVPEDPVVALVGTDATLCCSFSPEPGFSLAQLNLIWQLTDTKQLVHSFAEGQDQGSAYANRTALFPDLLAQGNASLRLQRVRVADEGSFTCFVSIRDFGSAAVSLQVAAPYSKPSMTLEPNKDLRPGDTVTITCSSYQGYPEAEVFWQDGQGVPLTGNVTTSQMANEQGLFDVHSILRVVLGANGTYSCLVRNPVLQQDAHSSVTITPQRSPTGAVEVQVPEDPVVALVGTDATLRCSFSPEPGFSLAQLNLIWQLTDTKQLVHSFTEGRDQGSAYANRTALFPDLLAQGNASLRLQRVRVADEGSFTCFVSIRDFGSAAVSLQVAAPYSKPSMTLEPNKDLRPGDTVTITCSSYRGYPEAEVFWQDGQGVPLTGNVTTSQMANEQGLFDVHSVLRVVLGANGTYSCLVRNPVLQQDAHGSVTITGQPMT
Protocol: as §2, §3

[8] = target: T4, bio-huCD276; assay: SPR, antibody captured on chip, antigen as analyte 400-12.5 nM
Protocol: as §2, §4

koff [1]: < 1e-07 s⁻¹
EC50 [2]: 0.32 nM
kon [3]: 324000 M⁻¹ s⁻¹
Kd [4]: < 0.000309 nM
Kd [5]: 25.1 nM
koff [5]: 0.00112 s⁻¹
kon [5]: 44700 M⁻¹ s⁻¹
B1: CD38 (Bivalent)-DOTA(Fab)-dp53 (bispecific antibody)
light: DVQLQESGGGLVQAGGSLRLSCTGSGRTFRNYPMAWFRQAPGKEREFVAGITWVGASTLYADFAKGRFTISRDNAKNTVYLQMNSLKPEDTAVYSCAAGRGIVAGRIPAEYADWGQGTQVTVSSGGGGSGGGGSGGGGSGGGGGSQAVVIQESALTTPPGETVTLTCGSSTGAVTASNYANWVQEKPDHLFTGLIGGHNNRPPGVPARFSGSLIGDKAALTIAGTQTEDEAIYFCALWYSDHWVIGGGTRLTVLGQPKANPTVTLFPPSSEELQANKATLVCLISDFYPGAVTVAWKADGSPVKAGVETTKPSKQSNNKYAASSYLSLTPEQWKSHRSYSCQVTHEGSTVEKTVAPTECS
heavy: DVQLQESGGGLVQAGGSLRLSCTGSGRTFRNYPMAWFRQAPGKEREFVAGITWVGASTLYADFAKGRFTISRDNAKNTVYLQMNSLKPEDTAVYSCAAGRGIVAGRIPAEYADWGQGTQVTVSSGGGGSGGGGSGGGGSGGGGGSHVKLQESGPGLVQPSQSLSLTCTVSGFSLTDYGVHWVRQSPGKGLEWLGVIWSGGGTAYNTALISRLNIYRDNSKNQVFLEMNSLQAEDTAMYYCARRGSYPYNYFDAWGRGTTVTVSSASTKGPSVFPLAPSSKSTSGGTAALGCLVKDYFPEPVTVSWNSGALTSGVHTFPAVLQSSGLYSLSSVVTVPSSSLGTQTYICNVNHKPSNTKVDKKVEPKSCG
notes: No tetramerization domain; also called YM00005; molecule 4

EC50 [6]: 2.14 nM
Kd [7]: 2.5 nM
koff [7]: 2.26e-05 s⁻¹
kon [7]: 9050 M⁻¹ s⁻¹
Kd [8]: 40.1 nM
koff [8]: 0.00456 s⁻¹
kon [8]: 114000 M⁻¹ s⁻¹
B2: CD276-DOTA(fab)-p53 (bispecific antibody)
light: DVQLVESGGGLVQPGGSLRLSCAASGFTFSRYWMGWFRQAPGKGVEWVSTINSGGGSTYYADSVKGRFTISRDNAKNTLYLQLNNLKTEDTAMYYCAKEQWRTGSRGQGTQVTVSSSGGGGSGGGGSGGGGSGGGGSQAVVIQESALTTPPGETVTLTCGSSTGAVTASNYANWVQEKPDHLFTGLIGGHNNRPPGVPARFSGSLIGDKAALTIAGTQTEDEAIYFCALWYSDHWVIGGGTRLTVLGQPKANPTVTLFPPSSEELQANKATLVCLISDFYPGAVTVAWKADGSPVKAGVETTKPSKQSNNKYAASSYLSLTPEQWKSHRSYSCQVTHEGSTVEKTVAPTECS
heavy: HVKLQESGPGLVQPSQSLSLTCTVSGFSLTDYGVHWVRQSPGKGLEWLGVIWSGGGTAYNTALISRLNIYRDNSKNQVFLEMNSLQAEDTAMYYCARRGSYPYNYFDAWGRGTTVTVSSASTKGPSVFPLAPSSKSTSGGTAALGCLVKDYFPEPVTVSWNSGALTSGVHTFPAVLQSSGLYSLSSVVTVPSSSLGTQTYICNVNHKPSNTKVDKKVEPKSCGGGGSGGGGSKPLDGEYFTLQIRGRERFEMFRELNEALELKDAQAGKEPGGS
notes: Tetramerizes through p53 depending on concentration; also called YM00012; molecule 11
